Experiment [1] deals with recombinant His6-tagged V-ATPase subunit C (Manduca sexta) (UniProt Q9U5N1). Briefly: SEC; V1 incubated with C-His6, Superose-6 column, 20 mM Tris-HCl, 100 mM NaCl, 10 mM KCl, 2 mM 2-mercaptoethanol, pH 8.0, 0.25 ml/min; fractions on SDS-PAGE with densitometry; apparent stoichiometry.
Experiment [2] concerns the target T1, Manduca sexta V-ATPase subunit B (Manduca sexta (tobacco hornworm), UniProt P31401 1-494).
T1 construct: V-ATPase subunit B, Manduca sexta; 56 kDa on SDS-PAGE; Seen as part of the V1 complex in the cryo-EM reconstruction; also called B subunits; source: endogenous, within V1 purified from Manduca sexta
The experiment in a line: cryo-EM structure; V1 mixed with recombinant C for 1 h at 4 °C (1:5 V1:C molar ratio), Lacey grids, plunge-frozen; 20 Å reconstruction of V1(+C), homologous crystal structures fitted. The conditions noted are these: both partners purified.

recombinant His6-tagged V-ATPase subunit C (Manduca sexta), sequence (Q9U5N1 whole entry): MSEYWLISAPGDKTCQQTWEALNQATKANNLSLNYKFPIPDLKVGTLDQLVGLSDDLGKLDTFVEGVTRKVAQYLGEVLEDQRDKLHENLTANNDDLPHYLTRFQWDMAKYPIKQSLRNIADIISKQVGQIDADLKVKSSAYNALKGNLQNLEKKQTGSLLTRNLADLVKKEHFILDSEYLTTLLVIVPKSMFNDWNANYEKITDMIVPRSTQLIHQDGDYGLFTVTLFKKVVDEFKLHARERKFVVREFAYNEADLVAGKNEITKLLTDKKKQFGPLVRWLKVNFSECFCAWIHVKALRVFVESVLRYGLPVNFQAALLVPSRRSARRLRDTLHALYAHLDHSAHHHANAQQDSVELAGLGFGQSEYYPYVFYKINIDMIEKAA
T1 sequence (P31401 whole entry): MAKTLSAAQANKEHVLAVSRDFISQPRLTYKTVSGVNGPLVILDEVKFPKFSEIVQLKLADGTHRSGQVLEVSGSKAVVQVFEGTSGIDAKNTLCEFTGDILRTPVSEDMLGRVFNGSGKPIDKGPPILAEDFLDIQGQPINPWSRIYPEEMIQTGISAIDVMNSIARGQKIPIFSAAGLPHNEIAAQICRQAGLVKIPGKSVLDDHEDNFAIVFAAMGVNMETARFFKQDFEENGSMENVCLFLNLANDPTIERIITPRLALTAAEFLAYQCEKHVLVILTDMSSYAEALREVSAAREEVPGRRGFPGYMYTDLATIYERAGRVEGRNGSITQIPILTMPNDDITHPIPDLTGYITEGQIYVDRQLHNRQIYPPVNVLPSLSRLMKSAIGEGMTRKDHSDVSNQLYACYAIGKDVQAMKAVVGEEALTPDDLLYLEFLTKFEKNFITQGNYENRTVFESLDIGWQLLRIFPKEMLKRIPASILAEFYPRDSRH

For the molecule “Manduca sexta V-ATPase V1 domain (deactivated, washed with 25% methanol to remove residual subunit C) (complex)”, the stoichiometry N (C per V1 (1 per H, 1 per 3 A)) in experiment [1] came to 1.

B1: Manduca sexta V-ATPase subunit E (natural protein, Manduca sexta (tobacco hornworm), UniProt P31402 1-226, looked up)
chain: MALSDADVQKQIKHMMAFIEQEANEKAEEIDAKAEEEFNIEKGRLVQQQRLKIMEYYEKKEKQVELQKKIQSSNMLNQARLKVLKVREDHVRNVLDEARKRLAEVPKDIKLYSDLLVTLIVQALFQLVEPTVTLRVRQADKALVESLLGRAQQDYKAKIKKDVVLKIDNENFLPPDTCGGIELIAAKGRIKISNTLESRLELIAQQLLPEIRNALFGRNPNRKFTD
notes: V-ATPase subunit E, Manduca sexta; 26 kDa on SDS-PAGE; Seen as part of the V1 complex in the cryo-EM reconstruction; also called subunit E of the E/G stator filaments S1-S3; source: endogenous, within V1 purified from Manduca sexta
On to B1, for which, in experiment [2], the binding result is on record as “binds”.

For the origin of these results see paper PMC3899036, “Subunit Positioning and Stator Filament Stiffness in Regulation and Power Transmission in the V1 Motor of the Manduca sexta V-ATPase^☆” (Journal of Molecular Biology, 2014).
